Where two headings read alike, the source gives them in different places.
Columns and labels:
[1] = tested on: U373MG cells; assay: Internalization and surface binding in U373MG cells; type: cell-based, human; conditions: for total cell uptake: 37 °C, 2.5 pmol peptide per well, % of total activity per well, triplicates; for receptor specific cell uptake: total minus nonspecific (10000 fold excess unlabeled SP)
Procedure: All the main cell studies were performed on U373MG human Glioblastoma cell lines. Cells were cultured in DMEM was supplemented with L-glutamine, antibiotics (penicillin, streptomycine, gentamycine) and10% FBS. They were grown in culture until a sufficient number of cells were available. At proper times, cells were detached by trypsin-EDTA (0.25% and 0.02%) from the culture flask and diluted with fresh medium to start a new culture or the cell line tests.
Internalization of the ^99mTclabeled HYNIC-Tyr^8-Met(O)^11-SP was studied as previously described method([32], [33]) with some modifications. In brief, newly detached U373MG cells were seeded in six-well plates 12 h before the experiment. Their culture medium was replaced by 1.2 mL of previously warmed fresh medium and cells were allowed to adjust to the medium for 1 h at 37 °C, 5% CO2. In order to determine nonspecific internalization, one line of wells per plate was incubated with 10000 fold excess of unlabeled SP (25 nmol peptide in 150 μL PBS per well) at 37°C/5% CO2 for 15 min to block NK1Rs. Then about 150kBq (2.5 pmol peptide) in 150 μL diluted solution of freshly radiolabeled peptide was added to each of the wells and were incubated (in triplicates) for 0.5, 1, 2 and 4 h at 37 °C/5% CO2, respectively. As the final volume of blocked wells was 1.5 mL, the content volume of unblocked wells was adjusted to 1.5 mL by adding 150 μL PBS per well. At each time point, radioactive media were aspirated and wells were washed twice with cold PBS (1x, pH 7.2) to remove free radio peptides. After that, cells were treated with 1 mLGly buffer (0.2M, pH adjusted to 2.8 with 1 M HCl) at room temperature for 5 min (twice) to remove cell-surface bound radio peptide. Finally, the cells were detached from the plates by three steps incubation with 1N NaOH at room temperature for 5 min to determine the internalized radio peptide. All consequent fractions were measured with a NaI γ-counter and results were expressed as percentage of total activity per well (free + cell-surface bound + internalized). Nonspecific accumulations were subtracted from totals to determine the specific accumulations.

[2] = Stability in aqueous solution; type: physicochemical; conditions: reaction mixture at 25 °C up to 24 h; sampled 1, 4, 24 h; RP-HPLC
Procedure: (§1) The stability of radiolabeled peptide in aqueous solution was evaluated by incubation of the reaction mixture at room temperature (25 °C)up to 24 h.Stability in human serum at 37 °C was tested in parallel after adding 100 μL of reaction mixture to 1ml of fresh human serum. The incubation mixtures were sampled at 1, 4, and 24 h time points. Serum samples (100-200 μL) were treated with ethanol (200-400 μL) and centrifuged (4000 g, 5 min, 4 °C) to precipitate the serum proteins. 20-100 μL aliquots from the supernatant were separated to assess the degradation of ^99mTc labeled peptide by RP-HPLC (method I). 100 μL aliquots from the 25 °C incubated mixture were passed through a […] to eliminate possible ^99mTc colloids and then, 5-20 μL of filtrate were analyzed by RP-HPLC as well.

[3] = Stability in human serum; type: in vitro ADME; conditions: fresh human serum, 37 °C, up to 24 h; sampled 1, 4, 24 h; ethanol precipitation; RP-HPLC
Procedure: as §1

[4] = Biodistribution in normal mice; type: in vivo; conditions: for tissue uptake at 1 h / tissue uptake at 4 h / tissue uptake at 24 h: male, mouse, iv, total radioactivity
Procedure: Male albino mice in a weight range of18-24 g were used for normal mice treatments and malenude mice (6 to 8 weeks old) were used for in-vivo tumor treatments. The mice were housed at controlled room temperature (25 °C) in a 12 h light/12 h dark schedule. They were kept in standard cages with free access to food and water except during the experiments. The nude mice were grown and kept in isolated sterile condition. All animal experiments were carried out in compliance with our institutional ethical guidelines.
Freshly labeled ^99mTc-HYNIC-Tyr^8-Met(O)^11-SP (purity>98%) was diluted to 3.3 nmol/mL with normal saline and a dose of 800 µCi/ 330 pmol in 100 µL was injected to each mouse via the tail vein. Also agroup of three animals (blocked group) were given150 µg of SP in 50 µL salineco-injected with the radiopeptide to determine the non-specific biodistribution of the radiopeptide by blocking the receptor-positive organs. After 1, 4, and 24 h post injection the mice in groups of three animals were sacrificed and organs of interest were excised. All organs and tissues were weighed, and the radioactivity was determined by gamma counter. Results were expressed as percentage of injected dose per gram (% ID/g) of tissue.

CC(C)C[C@H](NC(=O)CNC(=O)[C@H](Cc1ccc(O)cc1)NC(=O)[C@H](Cc1ccccc1)NC(=O)[C@H](CCC(N)=O)NC(=O)[C@H](CCC(N)=O)NC(=O)[C@@H]1CCCN1C(=O)[C@H](CCCCN)NC(=O)[C@@H]1CCCN1C(=O)[C@H](CCCNC(=N)N)NC(=O)c1ccc(NN)nc1)C(=O)N[C@@H](CC[S+](C)[O-])C(N)=O (stereo partly shown) [^99mTc-HYNIC-Tyr^8-Met(O)^11-SP, metal not drawn]
total cell uptake ([1]; 0.5 h): 2.86 ± 0.10% | receptor specific cell uptake ([1]; 0.5 h): 1.71% | total cell uptake ([1]; 4 h): 4.91 ± 0.22% | receptor specific cell uptake ([1]; 4 h): 2.98% | ratio of specific uptake to total uptake ([1]; over 0.5-4 h): 60.21 ± 1.19% | stability in aqueous solution [2]: good stability | stability in human serum [3]: good stability | %ID/g Blood ([4]; Blood, 1 h p.i., i.v., mean ± SEM, n=3): 1.02±0.16 %ID/g | %ID/g Blood ([4]; Blood, 4 h p.i., i.v., mean ± SEM, n=3): 0.36±0.03 %ID/g | D% Blood ([4]; Blood, decreased percent of %ID/g between 1 h and 4 h): 65% | %ID/g Bone ([4]; Bone, 1 h p.i., i.v., mean ± SEM, n=3): 0.44±0.03 %ID/g | D% Bone ([4]; Bone, decreased percent of %ID/g between 1 h and 4 h): 55% | D% Heart ([4]; Heart, decreased percent of %ID/g between 1 h and 4 h): 68% | D% Kidneys ([4]; Kidneys, decreased percent of %ID/g between 1 h and 4 h): 35% | %ID/g L. intestine ([4]; L. intestine, 1 h p.i., i.v., mean ± SEM, n=3): 1.14±0.09 %ID/g | %ID/g L. intestine ([4]; L. intestine, 4 h p.i., i.v., mean ± SEM, n=3): 1.33±0.28 %ID/g | %ID/g L. intestine ([4]; L. intestine, 24 h p.i., i.v., mean ± SEM, n=3): 0.37±0.06 %ID/g | D% L. intestine ([4]; L. intestine, decreased percent of %ID/g between 1 h and 4 h): -17% | %ID/g Liver ([4]; Liver, 1 h p.i., i.v., mean ± SEM, n=3): 0.58±0.04 %ID/g | %ID/g Liver ([4]; Liver, 4 h p.i., i.v., mean ± SEM, n=3): 0.38±0.05 %ID/g | %ID/g Liver ([4]; Liver, 24 h p.i., i.v., mean ± SEM, n=3): 0.16±0.02 %ID/g | D% Liver ([4]; Liver, decreased percent of %ID/g between 1 h and 4 h): 34% | %ID/g Lung ([4]; Lung, 1 h p.i., i.v., mean ± SEM, n=3): 0.94±0.19 %ID/g | %ID/g Lung ([4]; Lung, 4 h p.i., i.v., mean ± SEM, n=3): 0.33±0.02 %ID/g | %ID/g Lung ([4]; Lung, 24 h p.i., i.v., mean ± SEM, n=3): 0.17±0.04 %ID/g | D% Lung ([4]; Lung, decreased percent of %ID/g between 1 h and 4 h): 65% | %ID/g Muscle ([4]; Muscle, 1 h p.i., i.v., mean ± SEM, n=3): 0.32±0.07 %ID/g | D% Muscle ([4]; Muscle, decreased percent of %ID/g between 1 h and 4 h): 72% | %ID/g S. intestine ([4]; S. intestine, 1 h p.i., i.v., mean ± SEM, n=3): 2.13±0.17 %ID/g | %ID/g S. intestine ([4]; S. intestine, 4 h p.i., i.v., mean ± SEM, n=3): 0.89±0.21 %ID/g | %ID/g S. intestine ([4]; S. intestine, 24 h p.i., i.v., mean ± SEM, n=3): 0.24±0.04 %ID/g | D% S. intestine ([4]; S. intestine, decreased percent of %ID/g between 1 h and 4 h): 58% | %ID/g Salivary G. ([4]; Salivary G., 1 h p.i., i.v., mean ± SEM, n=3): 0.61±0.05 %ID/g | D% Salivary G. ([4]; Salivary G., decreased percent of %ID/g between 1 h and 4 h): 57% | D% Spleen ([4]; Spleen, decreased percent of %ID/g between 1 h and 4 h): 30% | D% Stomach ([4]; Stomach, decreased percent of %ID/g between 1 h and 4 h): 75% | tissue uptake at 1 h ([4]; albino, 330 pmol per mouse, Stomach, 1 h p.i., i.v., mean ± SEM, n=3, read-out: %ID/g Stomach): 1.57 ± 0.13 %ID/g | tissue uptake at 4 h ([4]; albino, 330 pmol per mouse, Stomach, 4 h p.i., i.v., mean ± SEM, n=3, read-out: %ID/g Stomach): 0.39 ± 0.06 %ID/g | tissue uptake at 24 h ([4]; albino, 330 pmol per mouse, Stomach, 24 h p.i., i.v., mean ± SEM, n=3, read-out: %ID/g Stomach): 0.15 ± 0.01 %ID/g | tissue uptake at 4 h ([4]; albino, salivary gland, 330 pmol per mouse, Salivary G., 4 h p.i., i.v., mean ± SEM, n=3, read-out: %ID/g Salivary G.): 0.26 ± 0.02 %ID/g | tissue uptake at 24 h ([4]; albino, salivary gland, 330 pmol per mouse, Salivary G., 24 h p.i., i.v., mean ± SEM, n=3, read-out: %ID/g Salivary G.): 0.2 ± 0.02 %ID/g | tissue uptake at 24 h ([4]; 800 uCi (330 pmol) per mouse, Blood, 24 h p.i., i.v., mean ± SEM, n=3, read-out: %ID/g Blood): 0.14 ± 0.02 %ID/g | tissue uptake at 4 h ([4]; 800 uCi (330 pmol) per mouse, Bone, 4 h p.i., i.v., mean ± SEM, n=3, read-out: %ID/g Bone): 0.2 ± 0.02 %ID/g | tissue uptake at 24 h ([4]; 800 uCi (330 pmol) per mouse, Bone, 24 h p.i., i.v., mean ± SEM, n=3, read-out: %ID/g Bone): 0.07 ± 0.03 %ID/g | tissue uptake at 1 h ([4]; 800 uCi (330 pmol) per mouse, Heart, 1 h p.i., i.v., mean ± SEM, n=3, read-out: %ID/g Heart): 0.55 ± 0.14 %ID/g | tissue uptake at 4 h ([4]; 800 uCi (330 pmol) per mouse, Heart, 4 h p.i., i.v., mean ± SEM, n=3, read-out: %ID/g Heart): 0.17 ± 0.01 %ID/g | tissue uptake at 24 h ([4]; 800 uCi (330 pmol) per mouse, Heart, 24 h p.i., i.v., mean ± SEM, n=3, read-out: %ID/g Heart): 0.06 ± 0.04 %ID/g | tissue uptake at 1 h ([4]; 800 uCi (330 pmol) per mouse, Kidneys, 1 h p.i., i.v., mean ± SEM, n=3, read-out: %ID/g Kidneys): 21.2 ± 0.7 %ID/g | tissue uptake at 4 h ([4]; 800 uCi (330 pmol) per mouse, Kidneys, 4 h p.i., i.v., mean ± SEM, n=3, read-out: %ID/g Kidneys): 13.8 ± 1.96 %ID/g | tissue uptake at 24 h ([4]; 800 uCi (330 pmol) per mouse, Kidneys, 24 h p.i., i.v., mean ± SEM, n=3, read-out: %ID/g Kidneys): 5.47 ± 0.56 %ID/g | tissue uptake at 4 h ([4]; 800 uCi (330 pmol) per mouse, Muscle, 4 h p.i., i.v., mean ± SEM, n=3, read-out: %ID/g Muscle): 0.09 ± 0.03 %ID/g | tissue uptake at 24 h ([4]; 800 uCi (330 pmol) per mouse, Muscle, 24 h p.i., i.v., mean ± SEM, n=3, read-out: %ID/g Muscle): 0.04 ± 0.02 %ID/g | tissue uptake at 1 h ([4]; 800 uCi (330 pmol) per mouse, Spleen, 1 h p.i., i.v., mean ± SEM, n=3, read-out: %ID/g Spleen): 0.4 ± 0.09 %ID/g | tissue uptake at 4 h ([4]; 800 uCi (330 pmol) per mouse, Spleen, 4 h p.i., i.v., mean ± SEM, n=3, read-out: %ID/g Spleen): 0.28 ± 0.06 %ID/g | tissue uptake at 24 h ([4]; 800 uCi (330 pmol) per mouse, Spleen, 24 h p.i., i.v., mean ± SEM, n=3, read-out: %ID/g Spleen): 0.13 ± 0.08 %ID/g

Reference: PMC4277623, “Synthesis and Preliminary Evaluation of a New ^99mTc Labeled Substance P Analogue as a Potential Tumor Imaging Agent” (Iranian Journal of Pharmaceutical Research : IJPR, 2015)
